Laboratory results published in patent US20230135471A1, “UBIQUITIN VARIANTS WITH IMPROVED AFFINITY FOR 53BP1” (Integrated DNA Technologies, Inc., priority 2021, published 2023).

These substances were tested against 53BP1 fragment (a.a. 1221-1718) fused to an adenylate cyclase fragment (two-hybrid) (UniProt Q12888) (assay: cell-based or functional assay).

“i53-adenylate cyclase fragment fusion protein (two-hybrid) (designed binder)” showed a GFP positive population, high selection pressure of 3%.

In the case of “i53-adenylate cyclase fragment fusion protein (two-hybrid) (designed binder)”, the GFP positive population, low selection pressure is reported as 17%.

Work on “i53-adenylate cyclase fragment fusion protein (two-hybrid) (designed binder)” yielded a Percent GFP Positive Rep 1 of 9%.

Work on “i53-adenylate cyclase fragment fusion protein (two-hybrid) (designed binder)” yielded a Percent GFP Positive Rep 2 of 7.6%.

“i53-adenylate cyclase fragment fusion protein (two-hybrid) (designed binder)” was tested, and the Percent GFP Positive Rep 3 was 11.8%.

In order of rising Experiment 1 Average Enrichment:
1. i53 + V17C two-hybrid fusion (designed binder)  -1.08 log2
2. i53 + H68Q two-hybrid fusion (designed binder)  0.07 log2
3. i53 + R74T two-hybrid fusion (designed binder)  0.33 log2
4. i53 + D39E two-hybrid fusion (designed binder)  0.36 log2
5. i53 + S57A two-hybrid fusion (designed binder)  0.37 log2
6. i53 + N25L two-hybrid fusion (designed binder)  0.43 log2
7. i53 + E51D two-hybrid fusion (designed binder)  0.52 log2
8. i53 + V26L two-hybrid fusion (designed binder)  0.55 log2
9. i53 + S49P two-hybrid fusion (designed binder)  0.78 log2

In order of rising Experiment 1 Rep 1 Enrichment:
1. i53 + V17C two-hybrid fusion (designed binder)  -2.27 log2
2. i53 + S57A two-hybrid fusion (designed binder)  0.29 log2
3. i53 + D39E two-hybrid fusion (designed binder)  0.29 log2
4. i53 + E51D two-hybrid fusion (designed binder)  0.31 log2
5. i53 + V26L two-hybrid fusion (designed binder)  0.4 log2
6. i53 + R74T two-hybrid fusion (designed binder)  0.4 log2
7. i53 + H68Q two-hybrid fusion (designed binder)  0.44 log2
8. i53 + N25L two-hybrid fusion (designed binder)  0.47 log2
9. i53 + S49P two-hybrid fusion (designed binder)  0.65 log2

In order of falling Experiment 1 Rep 2 Enrichment:
1. i53 + S49P two-hybrid fusion (designed binder)  0.91 log2
2. i53 + E51D two-hybrid fusion (designed binder)  0.72 log2
3. i53 + V26L two-hybrid fusion (designed binder)  0.69 log2
4. i53 + S57A two-hybrid fusion (designed binder)  0.46 log2
5. i53 + D39E two-hybrid fusion (designed binder)  0.44 log2
6. i53 + N25L two-hybrid fusion (designed binder)  0.39 log2
7. i53 + R74T two-hybrid fusion (designed binder)  0.26 log2
8. i53 + V17C two-hybrid fusion (designed binder)  0.12 log2
9. i53 + H68Q two-hybrid fusion (designed binder)  -0.3 log2

In order of rising Experiment 2 Average Enrichment:
1. i53 + H68Q two-hybrid fusion (designed binder)  -0.5 log2
2. i53 + D39E two-hybrid fusion (designed binder)  -0.18 log2
3. i53 + S57A two-hybrid fusion (designed binder)  0.03 log2
4. i53 + V17C two-hybrid fusion (designed binder)  0.19 log2
5. i53 + N25L two-hybrid fusion (designed binder)  0.23 log2
6. i53 + R74T two-hybrid fusion (designed binder)  0.31 log2
7. i53 + V26L two-hybrid fusion (designed binder)  0.55 log2
8. i53 + S49P two-hybrid fusion (designed binder)  0.58 log2
9. i53 + E51D two-hybrid fusion (designed binder)  0.61 log2

In order of falling Experiment 2 Rep 1 Enrichment:
1. i53 + S49P two-hybrid fusion (designed binder)  0.71 log2
2. i53 + V17C two-hybrid fusion (designed binder)  0.6 log2
3. i53 + V26L two-hybrid fusion (designed binder)  0.52 log2
4. i53 + E51D two-hybrid fusion (designed binder)  0.29 log2
5. i53 + N25L two-hybrid fusion (designed binder)  0.26 log2
6. i53 + R74T two-hybrid fusion (designed binder)  0.25 log2
7. i53 + S57A two-hybrid fusion (designed binder)  -0.03 log2
8. i53 + D39E two-hybrid fusion (designed binder)  -0.14 log2
9. i53 + H68Q two-hybrid fusion (designed binder)  -0.62 log2

In order of falling Experiment 2 Rep 2 Enrichment:
1. i53 + E51D two-hybrid fusion (designed binder)  0.92 log2
2. i53 + V26L two-hybrid fusion (designed binder)  0.58 log2
3. i53 + S49P two-hybrid fusion (designed binder)  0.44 log2
4. i53 + R74T two-hybrid fusion (designed binder)  0.38 log2
5. i53 + N25L two-hybrid fusion (designed binder)  0.19 log2
6. i53 + S57A two-hybrid fusion (designed binder)  0.08 log2
7. i53 + D39E two-hybrid fusion (designed binder)  -0.23 log2
8. i53 + V17C two-hybrid fusion (designed binder)  -0.23 log2
9. i53 + H68Q two-hybrid fusion (designed binder)  -0.38 log2

The substances below were run against 53BP1 fragment (a.a. 1221-1718) fused to an adenylate cyclase fragment (two-hybrid) (UniProt Q12888) (assay: not given).

Work on i53-DM (designed binder) yielded a % GFP+ of 0.1%.

In order of rising percent GFP-positive E. coli cells, two-hybrid reporter, gate P5:
1. i53-DM (designed binder)  0.1%
2. i53-adenylate cyclase fragment fusion protein (two-hybrid) (designed binder)  9%
